Measured values from the supplement of paper PMC10266784.

B1: library; numbered along this chain (parent)
chain: MAAAAAAAAEQQSSNGPVKKSMREKAVERRSVNKEHNSNFKAGYIPIDEDRLHKTGLRGRKGNLAICVIILLFILAVINLIITLVIWAVIRIGPNGCDSMEFHESGLLRFKQVSDMGVIHPLYKSTVGGRRNENLVITGNNQPIVFQQGTTKLSVENNKTSITSDIGMQFFDPRTQNILFSTDYETHEFHLPSGVKSLNVQKASTERITSNATSDLNIKVDGRAIVRGNEGVFIMGKTIEFHMGGNMELKAENSIILNGSVMVSTTRLPSSSSGDQLGSGDWVRYKLCMCADGTLFKVQVTSQNMGCQISDNPCGNTH

Variants of: B1
Assay: SGCB cell-surface expression functional score (HA stain, bin4 vs bin1, normalised to synonymous) (log10 ratio); higher = more cell-surface SGCB (functional)
Summary of the method: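 HEK293 cells stably expressing alpha-, gamma- and delta-sarcoglycan received codon-saturation libraries of HA-tagged, YFP-fused human beta-sarcoglycan by lentiviral transduction at MOI <0.1, performed in duplicate. Cells positive for YFP were sorted after 72 hours and cultured for 5–7 days, then stained on ice with Alexa Fluor 647 anti-HA and fixed. Fixed cells were sorted into four 5% intensity bins and amplicon-sequenced, and the log ratio of highest-bin to lowest-bin variant frequency, as a median over codons and transductions, gives the functional score. Per section, synonymous variants were scaled to mean 0, SD 0.5.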

Variant | SGCB cell-surface expression functional score (log10)
MAAAAAAAAEQQSSNGPVKKSMREKAVERRSVNKEHNSNFKAGYIPIDEDRLHKTGLRGRKGNLAICVIILLFILAVINLIITLVIWAVIRIGPNGCDSMEFHESGLLRFKQVSDMGVIHPLYKSTVGGRRNENLVITGNNQPIVFQQGTTKLSVENNKTSITSDIGMQFFDPRTQNILFSTDYETHEFHLPSGVKSLNVQWASTERITSNATSDLNIKVDGRAIVRGNEGVFIMGKTIEFHMGGNMELKAENSIILNGSVMVSTTRLPSSSSGDQLGSGDWVRYKLCMCADGTLFKVQVTSQNMGCQISDNPCGNTH [K202W] | -0.14
MAAAAAAAAEQQSSNGPVKKSMREKAVERRSVNKEHNSNFKAGYIPIDEDRLHKTGLRGRKGNLAICVIILLFILAVINLIITLVIWAVIRIGPNGCDSMEFHESGLLRFKQVSDMGVIHPLYKSTVGGRRNENLVITGNNQPIVFQQGTTKLSVENNKTSITSDIGMQFFDPRTQNILFSTDYETHEFHLPSGVKSLNVQMASTERITSNATSDLNIKVDGRAIVRGNEGVFIMGKTIEFHMGGNMELKAENSIILNGSVMVSTTRLPSSSSGDQLGSGDWVRYKLCMCADGTLFKVQVTSQNMGCQISDNPCGNTH [K202M] | 0.2
MAAAAAAAAEQQSSNGPVKKSMREKAVERRSVNKEHNSNFKAGYIPIDEDRLHKTGLRGRKGNLAICVIILLFILAVINLIITLVIWAVIRIGPNGCDSMEFHESGLLRFKQVSDMGVIHPLYKSTVGGRRNENLVITGNNQPIVFQQGTTKLSVENNKTSITSDIGMQFFDPRTQNILFSTDYETHEFHLPSGVKSLNVQTASTERITSNATSDLNIKVDGRAIVRGNEGVFIMGKTIEFHMGGNMELKAENSIILNGSVMVSTTRLPSSSSGDQLGSGDWVRYKLCMCADGTLFKVQVTSQNMGCQISDNPCGNTH [K202T] | 0.12
MAAAAAAAAEQQSSNGPVKKSMREKAVERRSVNKEHNSNFKAGYIPIDEDRLHKTGLRGRKGNLAICVIILLFILAVINLIITLVIWAVIRIGPNGCDSMEFHESGLLRFKQVSDMGVIHPLYKSTVGGRRNENLVITGNNQPIVFQQGTTKLSVENNKTSITSDIGMQFFDPRTQNILFSTDYETHEFHLPSGVKSLNVQNASTERITSNATSDLNIKVDGRAIVRGNEGVFIMGKTIEFHMGGNMELKAENSIILNGSVMVSTTRLPSSSSGDQLGSGDWVRYKLCMCADGTLFKVQVTSQNMGCQISDNPCGNTH [K202N] | -0.53
MAAAAAAAAEQQSSNGPVKKSMREKAVERRSVNKEHNSNFKAGYIPIDEDRLHKTGLRGRKGNLAICVIILLFILAVINLIITLVIWAVIRIGPNGCDSMEFHESGLLRFKQVSDMGVIHPLYKSTVGGRRNENLVITGNNQPIVFQQGTTKLSVENNKTSITSDIGMQFFDPRTQNILFSTDYETHEFHLPSGVKSLNVQQASTERITSNATSDLNIKVDGRAIVRGNEGVFIMGKTIEFHMGGNMELKAENSIILNGSVMVSTTRLPSSSSGDQLGSGDWVRYKLCMCADGTLFKVQVTSQNMGCQISDNPCGNTH [K202Q] | 0.17
MAAAAAAAAEQQSSNGPVKKSMREKAVERRSVNKEHNSNFKAGYIPIDEDRLHKTGLRGRKGNLAICVIILLFILAVINLIITLVIWAVIRIGPNGCDSMEFHESGLLRFKQVSDMGVIHPLYKSTVGGRRNENLVITGNNQPIVFQQGTTKLSVENNKTSITSDIGMQFFDPRTQNILFSTDYETHEFHLPSGVKSLNVQSASTERITSNATSDLNIKVDGRAIVRGNEGVFIMGKTIEFHMGGNMELKAENSIILNGSVMVSTTRLPSSSSGDQLGSGDWVRYKLCMCADGTLFKVQVTSQNMGCQISDNPCGNTH [K202S] | 0.02
MAAAAAAAAEQQSSNGPVKKSMREKAVERRSVNKEHNSNFKAGYIPIDEDRLHKTGLRGRKGNLAICVIILLFILAVINLIITLVIWAVIRIGPNGCDSMEFHESGLLRFKQVSDMGVIHPLYKSTVGGRRNENLVITGNNQPIVFQQGTTKLSVENNKTSITSDIGMQFFDPRTQNILFSTDYETHEFHLPSGVKSLNVQYASTERITSNATSDLNIKVDGRAIVRGNEGVFIMGKTIEFHMGGNMELKAENSIILNGSVMVSTTRLPSSSSGDQLGSGDWVRYKLCMCADGTLFKVQVTSQNMGCQISDNPCGNTH [K202Y] | -0.69
MAAAAAAAAEQQSSNGPVKKSMREKAVERRSVNKEHNSNFKAGYIPIDEDRLHKTGLRGRKGNLAICVIILLFILAVINLIITLVIWAVIRIGPNGCDSMEFHESGLLRFKQVSDMGVIHPLYKSTVGGRRNENLVITGNNQPIVFQQGTTKLSVENNKTSITSDIGMQFFDPRTQNILFSTDYETHEFHLPSGVKSLNVQRASTERITSNATSDLNIKVDGRAIVRGNEGVFIMGKTIEFHMGGNMELKAENSIILNGSVMVSTTRLPSSSSGDQLGSGDWVRYKLCMCADGTLFKVQVTSQNMGCQISDNPCGNTH [K202R] | 0.09
MAAAAAAAAEQQSSNGPVKKSMREKAVERRSVNKEHNSNFKAGYIPIDEDRLHKTGLRGRKGNLAICVIILLFILAVINLIITLVIWAVIRIGPNGCDSMEFHESGLLRFKQVSDMGVIHPLYKSTVGGRRNENLVITGNNQPIVFQQGTTKLSVENNKTSITSDIGMQFFDPRTQNILFSTDYETHEFHLPSGVKSLNVQPASTERITSNATSDLNIKVDGRAIVRGNEGVFIMGKTIEFHMGGNMELKAENSIILNGSVMVSTTRLPSSSSGDQLGSGDWVRYKLCMCADGTLFKVQVTSQNMGCQISDNPCGNTH [K202P] | -0.97
MAAAAAAAAEQQSSNGPVKKSMREKAVERRSVNKEHNSNFKAGYIPIDEDRLHKTGLRGRKGNLAICVIILLFILAVINLIITLVIWAVIRIGPNGCDSMEFHESGLLRFKQVSDMGVIHPLYKSTVGGRRNENLVITGNNQPIVFQQGTTKLSVENNKTSITSDIGMQFFDPRTQNILFSTDYETHEFHLPSGVKSLNVQVASTERITSNATSDLNIKVDGRAIVRGNEGVFIMGKTIEFHMGGNMELKAENSIILNGSVMVSTTRLPSSSSGDQLGSGDWVRYKLCMCADGTLFKVQVTSQNMGCQISDNPCGNTH [K202V] | -0.17
MAAAAAAAAEQQSSNGPVKKSMREKAVERRSVNKEHNSNFKAGYIPIDEDRLHKTGLRGRKGNLAICVIILLFILAVINLIITLVIWAVIRIGPNGCDSMEFHESGLLRFKQVSDMGVIHPLYKSTVGGRRNENLVITGNNQPIVFQQGTTKLSVENNKTSITSDIGMQFFDPRTQNILFSTDYETHEFHLPSGVKSLNVQLASTERITSNATSDLNIKVDGRAIVRGNEGVFIMGKTIEFHMGGNMELKAENSIILNGSVMVSTTRLPSSSSGDQLGSGDWVRYKLCMCADGTLFKVQVTSQNMGCQISDNPCGNTH [K202L] | 0.04
MAAAAAAAAEQQSSNGPVKKSMREKAVERRSVNKEHNSNFKAGYIPIDEDRLHKTGLRGRKGNLAICVIILLFILAVINLIITLVIWAVIRIGPNGCDSMEFHESGLLRFKQVSDMGVIHPLYKSTVGGRRNENLVITGNNQPIVFQQGTTKLSVENNKTSITSDIGMQFFDPRTQNILFSTDYETHEFHLPSGVKSLNVQKFSTERITSNATSDLNIKVDGRAIVRGNEGVFIMGKTIEFHMGGNMELKAENSIILNGSVMVSTTRLPSSSSGDQLGSGDWVRYKLCMCADGTLFKVQVTSQNMGCQISDNPCGNTH [A203F] | -0.62
MAAAAAAAAEQQSSNGPVKKSMREKAVERRSVNKEHNSNFKAGYIPIDEDRLHKTGLRGRKGNLAICVIILLFILAVINLIITLVIWAVIRIGPNGCDSMEFHESGLLRFKQVSDMGVIHPLYKSTVGGRRNENLVITGNNQPIVFQQGTTKLSVENNKTSITSDIGMQFFDPRTQNILFSTDYETHEFHLPSGVKSLNVQKGSTERITSNATSDLNIKVDGRAIVRGNEGVFIMGKTIEFHMGGNMELKAENSIILNGSVMVSTTRLPSSSSGDQLGSGDWVRYKLCMCADGTLFKVQVTSQNMGCQISDNPCGNTH [A203G] | -1.02
MAAAAAAAAEQQSSNGPVKKSMREKAVERRSVNKEHNSNFKAGYIPIDEDRLHKTGLRGRKGNLAICVIILLFILAVINLIITLVIWAVIRIGPNGCDSMEFHESGLLRFKQVSDMGVIHPLYKSTVGGRRNENLVITGNNQPIVFQQGTTKLSVENNKTSITSDIGMQFFDPRTQNILFSTDYETHEFHLPSGVKSLNVQKESTERITSNATSDLNIKVDGRAIVRGNEGVFIMGKTIEFHMGGNMELKAENSIILNGSVMVSTTRLPSSSSGDQLGSGDWVRYKLCMCADGTLFKVQVTSQNMGCQISDNPCGNTH [A203E] | -0.01
MAAAAAAAAEQQSSNGPVKKSMREKAVERRSVNKEHNSNFKAGYIPIDEDRLHKTGLRGRKGNLAICVIILLFILAVINLIITLVIWAVIRIGPNGCDSMEFHESGLLRFKQVSDMGVIHPLYKSTVGGRRNENLVITGNNQPIVFQQGTTKLSVENNKTSITSDIGMQFFDPRTQNILFSTDYETHEFHLPSGVKSLNVQKCSTERITSNATSDLNIKVDGRAIVRGNEGVFIMGKTIEFHMGGNMELKAENSIILNGSVMVSTTRLPSSSSGDQLGSGDWVRYKLCMCADGTLFKVQVTSQNMGCQISDNPCGNTH [A203C] | 0.38
MAAAAAAAAEQQSSNGPVKKSMREKAVERRSVNKEHNSNFKAGYIPIDEDRLHKTGLRGRKGNLAICVIILLFILAVINLIITLVIWAVIRIGPNGCDSMEFHESGLLRFKQVSDMGVIHPLYKSTVGGRRNENLVITGNNQPIVFQQGTTKLSVENNKTSITSDIGMQFFDPRTQNILFSTDYETHEFHLPSGVKSLNVQKISTERITSNATSDLNIKVDGRAIVRGNEGVFIMGKTIEFHMGGNMELKAENSIILNGSVMVSTTRLPSSSSGDQLGSGDWVRYKLCMCADGTLFKVQVTSQNMGCQISDNPCGNTH [A203I] | -0.24
MAAAAAAAAEQQSSNGPVKKSMREKAVERRSVNKEHNSNFKAGYIPIDEDRLHKTGLRGRKGNLAICVIILLFILAVINLIITLVIWAVIRIGPNGCDSMEFHESGLLRFKQVSDMGVIHPLYKSTVGGRRNENLVITGNNQPIVFQQGTTKLSVENNKTSITSDIGMQFFDPRTQNILFSTDYETHEFHLPSGVKSLNVQKHSTERITSNATSDLNIKVDGRAIVRGNEGVFIMGKTIEFHMGGNMELKAENSIILNGSVMVSTTRLPSSSSGDQLGSGDWVRYKLCMCADGTLFKVQVTSQNMGCQISDNPCGNTH [A203H] | -1.81
MAAAAAAAAEQQSSNGPVKKSMREKAVERRSVNKEHNSNFKAGYIPIDEDRLHKTGLRGRKGNLAICVIILLFILAVINLIITLVIWAVIRIGPNGCDSMEFHESGLLRFKQVSDMGVIHPLYKSTVGGRRNENLVITGNNQPIVFQQGTTKLSVENNKTSITSDIGMQFFDPRTQNILFSTDYETHEFHLPSGVKSLNVQKKSTERITSNATSDLNIKVDGRAIVRGNEGVFIMGKTIEFHMGGNMELKAENSIILNGSVMVSTTRLPSSSSGDQLGSGDWVRYKLCMCADGTLFKVQVTSQNMGCQISDNPCGNTH [A203K] | -1.01
MAAAAAAAAEQQSSNGPVKKSMREKAVERRSVNKEHNSNFKAGYIPIDEDRLHKTGLRGRKGNLAICVIILLFILAVINLIITLVIWAVIRIGPNGCDSMEFHESGLLRFKQVSDMGVIHPLYKSTVGGRRNENLVITGNNQPIVFQQGTTKLSVENNKTSITSDIGMQFFDPRTQNILFSTDYETHEFHLPSGVKSLNVQKDSTERITSNATSDLNIKVDGRAIVRGNEGVFIMGKTIEFHMGGNMELKAENSIILNGSVMVSTTRLPSSSSGDQLGSGDWVRYKLCMCADGTLFKVQVTSQNMGCQISDNPCGNTH [A203D] | -1.81
